In series [1] the target is FGFR1b extracellular domain-Fc (human) (UniProt P11362). Put plainly: BLI. The following applies: BLI (Octet K2, protein A sensor, FGFR-Fc 5 ug/mL), VZ23 31.25-500 nM in PBS (8.1 mM Na2HPO4, 1.5 mM NaH2PO4, 137 mM NaCl, 2.7 mM KCl as given for NMR) with or …. A general note: Biolayer interferometry detects binding as a change in optical thickness at a sensor tip.
Series [2] deals with FGFR3c extracellular domain-Fc (human, UniProt P22607 23-375). Put plainly: BLI; BLI (Octet K2, protein A sensor, FGFR-Fc 5 ug/mL), VZ23 31.25-500 nM in PBS (8.1 mM Na2HPO4, 1.5 mM NaH2PO4, 137 mM NaCl, 2.7 mM KCl as given for NMR) with or without 2 mM MgCl2; pH 7.3 (stated for CD); temperature not stated. The following applies: protein: recombinant; tags: IgG1 Fc fusion; antiparallel G-quadruplex-like fold.
FGFR3c extracellular domain-Fc, sequence (P22607 23-375): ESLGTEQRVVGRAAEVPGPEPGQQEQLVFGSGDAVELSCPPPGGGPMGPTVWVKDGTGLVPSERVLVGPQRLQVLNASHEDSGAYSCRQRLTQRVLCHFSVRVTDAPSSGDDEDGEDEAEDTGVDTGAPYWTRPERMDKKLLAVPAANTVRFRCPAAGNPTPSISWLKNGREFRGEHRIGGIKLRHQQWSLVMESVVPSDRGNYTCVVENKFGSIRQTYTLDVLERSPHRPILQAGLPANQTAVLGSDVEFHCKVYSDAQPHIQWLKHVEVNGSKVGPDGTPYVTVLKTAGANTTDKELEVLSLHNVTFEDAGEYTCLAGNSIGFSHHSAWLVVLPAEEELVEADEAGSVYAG

For series [3], the target named is FGFR2b extracellular domain-Fc (human, UniProt P21802-3 22-378). The description is as above. The following applies: protein: recombinant; tags: IgG1 Fc fusion; antiparallel G-quadruplex-like fold.
FGFR2b extracellular domain-Fc, sequence (P21802 other isoform, or with tags, fused parts or gaps): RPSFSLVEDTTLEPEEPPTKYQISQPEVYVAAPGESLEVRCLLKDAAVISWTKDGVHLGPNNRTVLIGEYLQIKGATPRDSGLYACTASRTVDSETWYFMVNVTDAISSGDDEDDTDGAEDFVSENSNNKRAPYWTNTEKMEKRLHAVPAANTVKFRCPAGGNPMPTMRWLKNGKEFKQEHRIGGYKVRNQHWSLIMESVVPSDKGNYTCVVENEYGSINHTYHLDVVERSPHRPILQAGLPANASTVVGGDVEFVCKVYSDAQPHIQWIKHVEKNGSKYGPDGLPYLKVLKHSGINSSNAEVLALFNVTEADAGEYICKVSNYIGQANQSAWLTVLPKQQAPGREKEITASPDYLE
Series [4] concerns the target FGFR2c extracellular domain-Fc (human, UniProt P21802 22-377). Described as above. The following applies: protein: recombinant; tags: IgG1 Fc fusion; antiparallel G-quadruplex-like fold.
Series [5] concerns the target T1, FGFR4 extracellular domain-Fc (human, UniProt P22455 22-369).
T1 sequence: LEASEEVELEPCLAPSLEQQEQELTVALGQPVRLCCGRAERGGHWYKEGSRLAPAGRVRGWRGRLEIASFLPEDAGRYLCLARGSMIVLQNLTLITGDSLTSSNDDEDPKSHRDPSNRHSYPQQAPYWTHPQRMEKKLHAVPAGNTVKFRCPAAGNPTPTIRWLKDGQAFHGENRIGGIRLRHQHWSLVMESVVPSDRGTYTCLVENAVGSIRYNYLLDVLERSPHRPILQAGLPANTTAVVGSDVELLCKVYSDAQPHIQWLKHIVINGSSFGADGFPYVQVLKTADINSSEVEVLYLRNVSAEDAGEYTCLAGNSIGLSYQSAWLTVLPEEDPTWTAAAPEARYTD
The series is described as above. The following applies: protein: recombinant; tags: IgG1 Fc fusion; antiparallel G-quadruplex-like fold.

The target in series [6] is FGFR3b extracellular domain-Fc (human, UniProt P22607-2 23-377). Described as above. The following applies: protein: recombinant; tags: IgG1 Fc fusion; antiparallel G-quadruplex-like fold.
FGFR3b extracellular domain-Fc, sequence (P22607 other isoform, or with tags, fused parts or gaps): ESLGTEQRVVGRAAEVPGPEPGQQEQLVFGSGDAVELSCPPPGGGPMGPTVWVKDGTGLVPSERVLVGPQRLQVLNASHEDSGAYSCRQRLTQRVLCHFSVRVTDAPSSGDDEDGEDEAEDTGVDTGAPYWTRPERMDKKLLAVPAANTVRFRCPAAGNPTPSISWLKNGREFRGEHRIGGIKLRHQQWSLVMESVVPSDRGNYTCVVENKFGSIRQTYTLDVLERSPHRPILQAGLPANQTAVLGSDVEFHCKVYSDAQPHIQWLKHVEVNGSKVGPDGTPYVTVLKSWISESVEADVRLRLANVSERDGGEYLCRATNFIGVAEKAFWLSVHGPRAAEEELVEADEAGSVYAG
Series [7] deals with T2, FGFR1c extracellular domain-Fc (human, UniProt P11362-1 22-376). Put plainly: BLI; 2 mM Mg2+; BLI (Octet K2, protein A sensor, FGFR-Fc 5 ug/mL), VZ23 31.25-500 nM in PBS (8.1 mM Na2HPO4, 1.5 mM NaH2PO4, 137 mM NaCl, 2.7 mM KCl as given for NMR) with or without 2 mM MgCl2; pH 7.3 (stated for CD); temperature not stated. The following applies: protein: recombinant; tags: IgG1 Fc fusion; antiparallel G-quadruplex-like fold.
T2 sequence (P11362 22-376): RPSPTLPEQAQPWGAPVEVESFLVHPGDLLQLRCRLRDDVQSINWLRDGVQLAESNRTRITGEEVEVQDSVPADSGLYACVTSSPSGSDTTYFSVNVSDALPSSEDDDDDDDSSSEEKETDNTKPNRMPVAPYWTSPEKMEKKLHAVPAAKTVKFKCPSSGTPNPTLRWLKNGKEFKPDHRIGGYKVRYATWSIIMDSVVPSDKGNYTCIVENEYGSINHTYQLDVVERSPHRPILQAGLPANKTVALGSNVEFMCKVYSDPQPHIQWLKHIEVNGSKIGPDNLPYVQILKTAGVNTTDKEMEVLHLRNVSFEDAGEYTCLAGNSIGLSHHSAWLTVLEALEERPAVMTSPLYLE

The target of series [8] is T2, FGFR1c extracellular domain-Fc. Nature of the series: BLI; PBS, no Mg2+; BLI (Octet K2, protein A sensor, FGFR-Fc 5 ug/mL), VZ23 31.25-500 nM in PBS (8.1 mM Na2HPO4, 1.5 mM NaH2PO4, 137 mM NaCl, 2.7 mM KCl as given for NMR) with or without 2 mM MgCl2; pH 7.3 (stated for CD); temperature not stated. The following applies: protein: recombinant; tags: IgG1 Fc fusion; antiparallel G-quadruplex-like fold.

For series [9], the target named is FGFR1c extracellular domain-Fc;FGF1 (human;human, UniProt P11362-1;P05230 22-376;16-155, |). Put plainly: BLI; preformed FGF1:FGFR1c complex; 250 nM each; BLI (Octet K2, protein A sensor, FGFR-Fc 5 ug/mL), VZ23 31.25-500 nM in PBS (8.1 mM Na2HPO4, 1.5 mM NaH2PO4, 137 mM NaCl, 2.7 mM KCl as given for NMR) with or without 2 mM MgCl2; pH 7.3 (stated for CD); temperature not stated. The following applies: protein: recombinant;commercial; tags: IgG1 Fc fusion;; antiparallel G-quadruplex-like fold.
FGFR1c extracellular domain-Fc;FGF1, sequence (P11362 22-376, chain 1 of 2): as the sequence (P11362 22-376) above
FGFR1c extracellular domain-Fc;FGF1, sequence (P05230 16-155, chain 2 of 2): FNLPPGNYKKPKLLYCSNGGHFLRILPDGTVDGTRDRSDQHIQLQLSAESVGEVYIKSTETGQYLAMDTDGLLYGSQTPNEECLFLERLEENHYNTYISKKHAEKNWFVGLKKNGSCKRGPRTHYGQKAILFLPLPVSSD

FGFR1b extracellular domain-Fc (human), sequence (P11362 whole entry, the tested form may be a part): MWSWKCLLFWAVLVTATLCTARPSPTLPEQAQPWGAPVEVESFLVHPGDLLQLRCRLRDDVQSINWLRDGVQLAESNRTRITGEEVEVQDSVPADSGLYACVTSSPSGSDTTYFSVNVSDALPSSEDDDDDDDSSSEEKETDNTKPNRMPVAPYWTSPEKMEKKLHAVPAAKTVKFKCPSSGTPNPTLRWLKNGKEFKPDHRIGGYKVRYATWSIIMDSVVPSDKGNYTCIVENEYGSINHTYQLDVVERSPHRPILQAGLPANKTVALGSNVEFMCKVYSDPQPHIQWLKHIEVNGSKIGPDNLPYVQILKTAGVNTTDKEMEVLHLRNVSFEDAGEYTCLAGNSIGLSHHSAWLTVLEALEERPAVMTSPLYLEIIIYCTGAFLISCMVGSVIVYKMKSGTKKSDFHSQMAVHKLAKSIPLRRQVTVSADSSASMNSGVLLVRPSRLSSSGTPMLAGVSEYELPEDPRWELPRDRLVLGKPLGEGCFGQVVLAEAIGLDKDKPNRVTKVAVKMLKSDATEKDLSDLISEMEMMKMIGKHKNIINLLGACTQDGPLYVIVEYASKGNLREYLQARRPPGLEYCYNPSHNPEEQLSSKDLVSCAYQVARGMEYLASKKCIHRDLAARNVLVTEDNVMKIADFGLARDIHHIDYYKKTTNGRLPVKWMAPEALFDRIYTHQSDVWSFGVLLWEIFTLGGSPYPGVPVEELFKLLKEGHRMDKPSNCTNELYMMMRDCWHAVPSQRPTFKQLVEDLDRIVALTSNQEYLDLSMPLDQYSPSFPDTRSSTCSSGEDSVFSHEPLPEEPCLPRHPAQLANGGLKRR
FGFR2c extracellular domain-Fc, sequence (P21802 22-377): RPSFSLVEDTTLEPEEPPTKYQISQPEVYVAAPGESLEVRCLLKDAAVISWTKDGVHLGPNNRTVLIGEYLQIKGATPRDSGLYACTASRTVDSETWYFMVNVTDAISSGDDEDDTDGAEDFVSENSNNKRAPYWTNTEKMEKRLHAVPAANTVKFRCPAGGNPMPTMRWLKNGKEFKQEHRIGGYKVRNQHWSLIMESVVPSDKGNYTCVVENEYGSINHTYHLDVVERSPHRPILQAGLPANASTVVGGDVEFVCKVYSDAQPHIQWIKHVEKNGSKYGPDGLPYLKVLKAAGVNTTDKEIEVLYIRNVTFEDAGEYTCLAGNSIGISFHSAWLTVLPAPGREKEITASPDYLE

Consider “GGGATACAGGGCTTTGTCTATGGTGTGGATGGCGGATACC [VZ23]”, for which the Kd (commonly a measure of binding affinity in units of concentration) is 29.8 nM in series [1] (2 mM Mg2+) and 54.6 nM in [1] (PBS, no Mg2+).

B1: VZ23 (structured_DNA)
DNA: GGGATACAGGGCTTTGTCTATGGTGTGGATGGCGGATACC
For B1, the binding result in series [2] is recorded as “no binding”; in series [3] it was “no binding”; in series [4], “no binding”; in series [5], “no binding”; in series [6], “no binding”; in [9], “binds”. Also, the Kd was found to be 65.4 ± 5.5 nM in series [7] and 162 ± 48.7 nM in series [8].

Values taken from article PMC11700292, “Specific inhibition of fibroblast growth factor receptor 1 signaling by a DNA aptamer”.
